Results: publication PMC9723501 (Nucleic Acids Research, 2022)

Experiments:
ITC = molecular target: the molecule itself; assay: ITC
SEC-MALS = molecular target: the molecule itself; assay: SEC-MALS

B1: PV 2C NΔ39 (poliovirus 2C protein lacking the amino-terminal 39 residues) (domain or fragment)
chain: ARDKLEFVTKLRQLEMLENQISTIHQSCPSQEHQEILFNNVRWLSIQSKRFAPLYAVEAKRIQKLEHTINNYIQFKSKHRIEPVCLLVHGSPGTGKSVATNLIARAIAERENTSTYSLPPDPSHFDGYKQQGVVIMDDLNQNPDGADMKLFCQMVSTVEFIPPMASLEEKGILFTSNYVLASTNSSRISPPTVAHSDALARRFAFDMDIQVMNEYSRDGKLNMAMATEMCKNCHQPANFKRCCPLVCGKAIQLMDKSSRVRYSIDQITTMIINERNRRSNIGNCMEALFQ
Kd (ITC): ~400 nM
stoichiometry N (SEC-MALS): 2
